Experimental findings from the RNAGym collection of RNA variant scans (doi:10.1073/pnas.2313332121) are described below.

Fewer inactive variants are shown than the library holds.

B1: TPR 5TU (parent)
chain: GGAUCUUCUCGAUCUAACAAAAAAGACAAAUCUGCCACAAAGCUUGAGAGCAUCUUCGGAUGCAGAGGCGGCAGCCUUCGGUGGCGCGAUAGCGCCAACGUUCUCAACUAUGACACGCAAAACGCGUGCUCCGUUGAAUGGAGUUUAUCAUG

The series covers variants of B1. Description: polymerase ribozyme fitness, log enrichment relative to wild type (log ratio); higher = more active; in vitro selection for triplet polymerase activity. An outline of the steps:
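Fitness compares each genotype's enrichment to that of the wild type on a logarithmic scale, averaging replicates with inverse-variance weights. The logarithm is base 2. Enrichment came from Illumina sequencing of input and output libraries after one triplicate round of in vitro selection, which included frozen incubation at −7 °C, of PCR-built, transcribed mutant libraries of each subunit of a heterodimeric triplet polymerase ribozyme. Only genotypes with ≥10 input reads and ≥1 read per output were kept.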
Regarding GGAUCUUCUCGAUCUAACAAAAAAGACAAAUCUGCCACAAAGCUUGAGAGCAUCUUCGGAUGCAGAGGAGGCCGCCUUCGGUGUCGCGAUAGCGCCAACGUUCUCAACCAUGACACGAAAAACGCGUGCUCCGUUGAAUGGAGUUUAUCAUG, the “polymerase ribozyme fitness (log ratio)” value is ≤ -4.2.
For GGAUCUUCUCGAUCUAACAAAAAAGACAAAUCUGCCACAAAGCUUGAGAGCAUCUUCGGAUGCAGAGGAGGCAGCCUUCGGUAGCGCGAUAGCGCCAACGUUCUCAACUAUGACACGCAACACGCGUGCUCCGUUGAAUGGAGUUUAUCAUG the value was -1.84; for GGAUCUUCUCGAUCUAACAAAAAAGACAAAUCUGCCACAAAGCUUGAGAGCAUCUUCGGAUGCAGAGGAGGCAGCCUUCGGUGGCGCGAUAGCGCCAACGUUCUCAACUAUGACACGCAAAACGCGUGCUCCGUUGAAUUGAGUUUAUCAUG, -3.21; for GGAUCUUCUCGAUCUAACAAAAAAGACAAAUCUGCCACAAAGCUUGAGAGCAUCUUCGGAUGCAGAGGAGGCAGCCUUCGGUGACGCGAUAGCGCCAACGUUCGCAACUAUGACACGCAAAACGUAUGCUCCGUUGAAUGGCGUUUAUCAUG, ≤ -4.2.
Take GGAUCUUCUCGAUCUAACAAAAAAGACAAAUCUGCCACAAAGCUUGAGAGCAUCUUCGGAUGCAGAGGAGGCAGCCUUCGGUGGCGCGAUAGCGCCAACGUUCUCAACUAUGACACGCUAAACGCGUGCUCCGUUGAAUGGAGUUUAUCAUG: the “polymerase ribozyme fitness (log ratio)” value was -2.7.
As for GGAUCUUCUCGAUCUAACAAAAAAGACAAAUCUGCCACAAAGCUUGAGAGCAUCUUCGGAUGCAGAGGAGGCAGCCUUCGGUGACGCGAUAGCGCCAACGUUCUCAACUAUGACACGCAAAACGCGUGCUCCGUUGAAUGGAGUUUAUCAUG, the figure is -2.31.
For GGAUCUUCUCGAUCUAACAAAAAAGACAAAUCUGCCACAAAGCUUGAGAGCAUCUUCGGAUGCAGAGGAGGCAGCCUUCGGUCGCGCGAUAGCGCCAACGUUCUCAACUAUGACACGCAAAACGCGUGCUCCGUUGAAUGGAGUUUAUCAUG the value was -3.07; for GGAUCUUCUCGAUCUAACAAAAAAGACAAAUCUGCCACAAAGCUUGAGAGCAUCUUCGGAUGCAGAGGAGGCAGCCUUCGGUGGCGAGAUAGCGCCAACGUUCUCCACUAUGACACGCAAAACGCGUGCUCCGUUGAAUAGAGUUUAUCAUG, ≤ -4.2.
As for GGAUCUUCUCGAUCUAACAAAAAAGACAAAUCUGCCACAAAGCUUGAGAGCAUCUUCGGAUGCAGAGGAGGCAGCCUUCGGUGGCGCGAUAGCGCCAACGUUCUCAACUAUGACACGUAAAACGCGUGCUCCGUUGAAUGGAGUUUAUCAUG, the figure is -1.62.
Regarding GGAUCUUCUCGAUCUAACAAAAAAGACAAAUCUGCCACAAAGCUUGAGAGCAUCUUCGGAUGCAGAGGAGGCAGCCUUCGGUGGCGCGAUAGCGCCAACGUUCUCAACUAUGACACGGAAAACGCGUGCUCCGUUGAAUGGAGUUUAUCAUG, the “polymerase ribozyme fitness (log ratio)” value was -2.21.
For GGAUCUUCUCGAUCUAACAAAAAAGACAAAUCUGCCACAAAGCUUGAGAGCAUCUUCGGAUGCAGAGGAGGCAGCCUUCGGUGGCGCGAUAGCGCCAACGGUCUCAACUAUGACACGCAAAACGCAUGCUCCGUUGAAUGGAGUUUAUCAUG the value was -0.681; for GGAUCUUCUCGAUCUAACAAAAAAGACAAAUCUGCCACAAAGCUUGAGAGCAUCUUCGGAUGCAGAGGAGGCAGCCUUCGUUGUCGCGAUAGCGCCAACGUUCUCAACUAUGACACGCAAAACGCGUGCUCCGUUGAAUGGAGUUUAUCAUG, ≤ -4.2; for GGAUCUUCUCGAUCUAACAAAAAAGACAAAUCUGCCACAAAGCUUGAGAGCAUCUUCGGAUGCAGAGUCGGCAGCCUUCGGUGGCGCGAUAGCGCCAACGCUCUCAACUAUGACACGCAAAACGCGUGCUCCGUUGAAUGGAGUUUAUCAUG, -4.07.
As for GGAUCUUCUCGAUCUAACAAAAAAGACAAAUCUGCCACAAAGCUUGAGAGCAUCUUCGGAUGCAGAGGAGGCGGCCUUCGGUGGCGCGAUAGCGCCAACGUUCUCAACUAUGACACGCAAAACGCGUGCUCCGUUGAAUGGAGUUUAUCAUG, the figure is -2.98; as for GGAUCUUCUCGAUCUAACAAAAAAGACAAAUCUGCCACAAAGCUUGAGAGCAUCUUCGGAUGCAGAGGAGGCAGCCUUCGGUGGCGCGAUAGCCCCAACGUUCUCAACUAUGACACGCAAAACGCGUGCUCCGUUGAAUGGAGUUUAUCAUG, -0.673.
For GGAUCUUCUCGAUCUAACAAAAAAGACAAAUCUGCCACAAAGCUUGAGAGCAUCUUCGGAUGCAGAGGAGGCAGCCUUCGGUGGGGCGAUAGCGCCAACGUUCUCAACUAUGACACGCAACACGCGUGCUCCGUUGAAUGGAGUUUAUCAUG the value was -3.43; for GGAUCUUCUCGAUCUAACAAAAAAGACAAAUCUGCCACAAAGCUUGAGAGCAUCUUCGGAUGCAGAGGAGGCAGCCUUCGGUGGCGCGAUCGCGCCAACGUUCUCAACUAUGACACGCAAAUCGCGUGCUCCGUUGAAUGGCGUUUAUCAUG, ≤ -4.2.
With GGAUCUUCUCGAUCUAACAAAAAAGACAAAUCUGCCACAAAGCUUGAGAGCAUCUUCGGAUGCAGAGGAGUCAGCCUUCGGUGGGGCGAUAGCGCCAACGUUUUCAACUAUGACACCCAAAACGCGUGCUCCGUUGAAUGGAGUUUAUCAUG, the “polymerase ribozyme fitness (log ratio)” value is -3.28.
As for GGAUCUUCUCGAUCUAACAAAAAAGACAAAUCUGCCACAAAGCUUGAGAGCAUCUUCGGAUGCAGAGGAGGCGGCCUUCGGUGGCGCGAUACCGCCAACGUUCUCAACUAUGACACGCAAAACGCGUGCUCCGUUGAAUGGAGUUUAUCAUG, the figure is -1.54.
For GGAUCUUCUCGAUCUAACAAAAAAGACAAAUCUGCCACAAAGCUUGAGAGCAUCUUCGGAUGCAGAGGAGGCAGCCUUCGGUGGCGCGAUAGCGCCAACGUUCUCAACUAUGACACGCAAAACGCGUGCUCCGUUGAAUGGAUUUUAUCAUG the value was -3.34; for GGAUCUUCUCGAUCUAACAAAAAAGACAAAUCUGCCACAAAGCUUGAGAGCAUCUUCGGAUGCAGAGGAGGUAGCCUUCGGUGGCGCGAUAGCGCCAACGUUCUCAACUAUGACACGCAAAACGCGUGCUCCGUUGAAUGGAGUUUAUCAUG, -3.05.
For GGAUCUUCUCGAUCUAACAAAAAAGACAAAUCUGCCACAAAGCUUGAGAGCAUCUUCGGAUGCAGAGGAGGCAGCAUUCGGUGGCGCGAUAGCGCCAACGUUCUCAACCAUGACACGCAAAACGCGUGCUCCGUUGAAUGGAGUUUAUCAUG the value was ≤ -4.2; for GGAUCUUCUCGAUCUAACAAAAAAGACAAAUCUGCCACAAAGCUUGAGAGCAUCUUCGGAUGCAGAGGAGGCAGCCUUAGGUGGCGCGAUAGCGCCAACGUUCUCAACUAUGACUCGAAAAACGCGUGCUCCGUUGAAUGGAGUUUAUCAUG, ≤ -4.2.
GGAUCUUCUCGAUCUAACAAAAAAGACAAAUCUGCCACAAAGCUUGAGAGCAUCUUCGGAUGCAGAGGAGGCAGCCUUCGGUGGCGCGAUAGCGCCAACGUUCUCAACUAUGACACGCAAAACGCGUGCUCCGUUGAACAGAGUUUAACAUG: the “polymerase ribozyme fitness (log ratio)” value is ≤ -4.2.
For the variant GGAUCUUCUCGAUCUAACAAAAAAGACAAAUCUGCCACAAAGCUUGAGAGCAUCUUCGGAUGCAGAGGAGGCAGCCUUCGGUCGCGCGAUAGCGCCAACGGUCUCAACUAUGACACGCAAAACGCGUGCUCCGUUGAAUGGAGUUUAUCAUG, the “polymerase ribozyme fitness (log ratio)” value was ≤ -4.2.
For GGAUCUUCUCGAUCUAACAAAAAAGACAAAUCUGCCACAAAGCUUGAGAGCAUCUUCGGAUGCAGAGGAGGCAGUCUUCGGUGGCGCGAUAGCGCCAACGUUCUCGACUAUGACACGCAGAACGCGUGCUCCGUUGAAUGGAGUUUAUCAUG the value was -2.33; for GGAUCUUCUCGAUCUAACAAAAAAGACAAAUCUGCCACAAAGCUUGAGAGCAUCUUCGGAUGCAGAGGAGUCAGCCUUCGGUGGCGCGAUAGCGCCAACGUUCUCAACUAUGACACGCAAAACGCGUGCUCCGUUGAAUGGAGUUUAUCAUG, -0.808; for GGAUCUUCUCGAUCUAACAAAAAAGACAAAUCUGCCACAAAGCUUGAGAGCAUCUUCGGAUGCAGAGGAGGCAGCUUUCGGUGGCGCGAUAGCGCCAUCGUUCUCAACUAUGACACGCAAAACGUGUGCUCCGUUGAAUGGAGUUUAUCAUG, -1.9.
For GGAUCUUCUCGAUCUAACAAAAAAGACAAAUCUGCCACAAAGCUUGAGAGCAUCUUCGGAUGCAGAGGAGGCAGCCUUCGGUGGCGCGAUAGCGCCAACGUUCUCAACUAUGACACACAAAACGCGUGCUCCGUUGAAUGGAGUUUAUCAUG the value was -0.631; for GGAUCUUCUCGAUCUAACAAAAAAGACAAAUCUGCCACAAAGCUUGAGAGCAUCUUCGGAUGCAGAGGAGGCAGCCUUCGGUGGCGCGAUAGCGCCAACGUUCGCAACUAUGACACGCAAAACGCGUGCUCCGUUGAAUGGAGUUUAUCAUG, -3.09.
Consider GGAUCUUCUCGAUCUAACAAAAAAGACAAAUCUGCCACAAAGCUUGAGAGCAUCUUCGGAUGCAGAGGAGGCAGCCUUCGGUGGCGCGAUGGCGCCAACGUUCUCAACUAUGACACGCAAAACGCGUGCUCCGUUGAAUGGAGUUUAUCAUG, for which the “polymerase ribozyme fitness (log ratio)” value is -3.81.
For the variant GGAUCUUCUCGAUCUAACAAAAAAGACAAAUCUGCCACAAAGCUUGAGAGCAUCUUCGGAUGCAGAGGAGGCAGCCUUCGGUGGCGCGAUUGCGCCAACGUUCUCAACUAUGACACGCAAAACGCGUGCUCCGUUGAAUGGAGUUUAUCAUG, the “polymerase ribozyme fitness (log ratio)” value is ≤ -4.2.
For GGAUCUUCUCGAUCUAACAAAAAAGACAAAUCUGCCACAAAGCUUGAGAGCAUCUUCGGAUGCAGAGGAGGCAGCCUUCGGUAGCGCGAUAGCGCCAACGUUCUCAACUAUGACACGCAAAACGCGUGCUCCGUUGAAUGGAUUUUAUCAUG the value was -3.59.
Regarding GGAUCUUCUCGAUCUAACAAAAAAGACAAAUCUGCCACAAAGCUUGAGAGCAUCUUCGGAUGCAGAGGAGGCAGCCUUCGGUGACGCGGUAGCGCCAACGUUCUCAACUAUGACACGCAAAACGCGUGCUCCGUUGAAUGGAGUUCAUCAUG, the “polymerase ribozyme fitness (log ratio)” value was -2.59.
For GGAUCUUCUCGAUCUAACAAAAAAGACAAAUCUGCCACAAAGCUUGAGAGCAUCUUCGGAUGCAGAGGAAGCAGCCUUCGGUGGCGCGAUAGCGCCAACGUUCUCAACUAUGACACGCAAAACGCGUGCUCCGUUGAAUGGAGUUUAUCAUG the value was -4.19; for GGAUCUUCUCGAUCUAACAAAAAAGACAAAUCUGCCACAAAGCUUGAGAGCAUCUUCGGAUGCAGAGGAGGCAGCCUUCGGUGGCGCGAUAGCGCCAACGUUCUCAACUAUGACACGCAAAACGCGUGCUCCGUUGAAUGGAGUUUAUCAUG, -1.57.
For GGAUCUUCUCGAUCUAACAAAAAAGACAAAUCUGCCACAAAGCUUGAGAGCAUCUUCGGAUGCAGAGUCGGCAGCCUUCGGUGGCGCGAUAGCGCCAACGUUCUCAACUAUGACACGCAAAACGCGUUCUCCGUUGAAUGGAGUUUAUCAUG the value was ≤ -4.2; for GGAUCUUCUCGAUCUAACAAAAAAGACAAAUCUGCCACAAAGCUUGAGAGCAUCUUCGGAUGCAGAGGAGGCCGCCUUCGGUGGCACGAUAGCGCCAACGUUCUCAACUAUGACACGCCAAACGCGUGCUCCGUUGAAUGGAGUAUAUCAUG, ≤ -4.2.
